B1: FAM189A2 (parent)
chain: CALNALTTTVCLVAAALRYLQIFA
B2: RHOBTB3 (parent)
chain: STTEGIQLAKELGATYLELHSLDD

Variants of: B1
Experiment: protein stability index of a GFP-peptide fusion (GPS, HEK-293T) (PSI 1-6); higher = more stable
Details: c terminus: a fixed tail appended
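Also: lentivirally expressed fusions sorted by FACS into six bins by GFP to DsRed ratio, PSI derived from sequencing read proportions per bin multiplied by bin number.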

Row | Variant | protein stability index
1 | CALDALTTTVCLVAAALRYLQIFA [N4D] | 2.85
2 | CALKALTTTVCLVAAALRYLQIFA [N4K] | 2.35
3 | CALPALTTTVCLVAAALRYLQIFA [N4P] | 2.66
4 | CALVALTTTVCLVAAALRYLQIFA [N4V] | 3.46
5 | CALNALTTTVCLVVAALRYLQIFA [A14V] | 1.9
6 | CALNALTTTVCLVMAALRYLQIFA [A14M] | 3.17
7 | CALNALTTTVCLVKAALRYLQIFA [A14K] | 2.69
8 | CALNALTTTVCLVLAALRYLQIFA [A14L] | 3.6
9 | CALNALTTTVCLVHAALRYLQIFA [A14H] | 4.41
10 | CALNALTTTVCLVSAALRYLQIFA [A14S] | 4.79
11 | CALNALTTTVCLVCAALRYLQIFA [A14C] | 4.5
12 | CALNALTTTVCHVAAALRYLQIFA [L12H] | 3.28
13 | CALNALTTTVCGVAAALRYLQIFA [L12G] | 3.05
14 | CALNALTTTVCCVAAALRYLQIFA [L12C] | 2.39
15 | CALNALTTTVCPVAAALRYLQIFA [L12P] | 3.76
16 | CALNALTTTVCKVAAALRYLQIFA [L12K] | 2.3
17 | CALNALTTTVCRVAAALRYLQIFA [L12R] | 2.39
18 | CALNALTTTVCIVAAALRYLQIFA [L12I] | 3.35
19 | CALNALTTTVCYVAAALRYLQIFA [L12Y] | 3.88
20 | CALNALTTTVCLVAAALWYLQIFA [R18W] | 2.99
21 | CALNALTTTVCLVAAALEYLQIFA [R18E] | 3.6

Row | Variant | protein stability index
22 | CALNALTTTVCLVAAALNYLQIFA [R18N] | 3.9
23 | CALNALTTTVCLVAAALCYLQIFA [R18C] | 3.91
24 | CALNALTTTVCLVAAALRYLWIFA [Q21W] | 2.74
25 | CALNALTTTVCLVAAALRYLTIFA [Q21T] | 3.12
26 | CALNALTTTVCLVAAALRYLFIFA [Q21F] | 2.15
27 | CALNALTTTVCLVAAALRYLLIFA [Q21L] | 3.19
28 | CALNALTTTVCLVAAALRYLGIFA [Q21G] | 2.9
29 | CALNALTTTVALVAAALRYLQIFA [C11A] | 3.95
30 | CALNALTTTVPLVAAALRYLQIFA [C11P] | 2.3
31 | CALNALTTTVRLVAAALRYLQIFA [C11R] | 3.69
32 | CALNALTTTVILVAAALRYLQIFA [C11I] | 4.44
33 | CALNALTTTVDLVAAALRYLQIFA [C11D] | 2.75
34 | CALNALTTTVSLVAAALRYLQIFA [C11S] | 2.18
35 | CALNALTTTVNLVAAALRYLQIFA [C11N] | 1.91
36 | CALNALTTEVCLVAAALRYLQIFA [T9E] | 2.63
37 | CALNALTTCVCLVAAALRYLQIFA [T9C] | 2.34
38 | CALNALTTFVCLVAAALRYLQIFA [T9F] | 2.07
39 | CALNALTTNVCLVAAALRYLQIFA [T9N] | 2.79
40 | CALNALTTDVCLVAAALRYLQIFA [T9D] | 2.65
41 | CALNALTTTVCLVAAAVRYLQIFA [L17V] | 1.38
42 | CALNALTTTVCLVAAACRYLQIFA [L17C] | 3.24

Row | Variant | protein stability index
43 | CALNALTTTVCLVAAAFRYLQIFA [L17F] | 3.04
44 | CALNALTTTVCLVAAAYRYLQIFA [L17Y] | 2.25
45 | CALNALTTTVCLVAAAMRYLQIFA [L17M] | 4.11
46 | CALNALTTTVCLVAAALRYLQIFY [A24Y] | 3.32
47 | CALNALTTTVCLVAAALRYLQIFH [A24H] | 3.64
48 | CALNALTTTVCLVAAALRYLQIFW [A24W] | 2.96
49 | CALNALTTTVCLVAAALRYLQIFN [A24N] | 1.88
50 | CALNALTTTVCLVAAALRYLQIFP [A24P] | 2.09
51 | CALNALTTTVCLVAAALRYLQIFE [A24E] | 2.8
52 | CALNALTTTRCLVAAALRYLQIFA [V10R] | 1.62
53 | CALNALTTTECLVAAALRYLQIFA [V10E] | 3.04
54 | CALNALTTTWCLVAAALRYLQIFA [V10W] | 2.05
55 | CALNALTTTACLVAAALRYLQIFA [V10A] | 2.46
56 | CALNALTTTQCLVAAALRYLQIFA [V10Q] | 4.03
57 | CALNALTTTMCLVAAALRYLQIFA [V10M] | 1.98
58 | CALNALTTTPCLVAAALRYLQIFA [V10P] | 2.12
59 | CALNALTTTHCLVAAALRYLQIFA [V10H] | 3.15
60 | CALNALTTTKCLVAAALRYLQIFA [V10K] | 2.08
61 | CALNALTTTLCLVAAALRYLQIFA [V10L] | 3.21

Variants of: B2
Experiment: as above
Details: c terminus: a fixed tail appended

Row | Variant | protein stability index
62 | STTEGIQLAKELGATYLELHSLKD [D23K] | 3.14
63 | STTEGIQLAKELGATYLELHSLSD [D23S] | 3
64 | STTEGIQLAKELGATYLELHSLPD [D23P] | 3.66
65 | STTEGIQLAKELGATYLELHSLQD [D23Q] | 3.55
66 | STTEGIQLAKELGATYLELHSLND [D23N] | 3.13
67 | STTEGIQLAKELGATYLELHSLID [D23I] | 2.07
68 | STTEGIQLAKELGATYLELHSLVD [D23V] | 2.29
69 | STTEGIQLAKELGATYLELHSLTD [D23T] | 3.75
70 | STTEGIQLAKELGATYLELHSLYD [D23Y] | 2.42
71 | STTEGIQLAKELGATYLELHSLWD [D23W] | 2.92
72 | STTEGIQLAKELGATYLELHSLHD [D23H] | 3.71
73 | STTEGIQLAKELGATYLELHSLRD [D23R] | 2.81
74 | STTEGIQLAKELGATYLELHSLAD [D23A] | 2.43
75 | STTEGIQLAKELGATYLELHSLLD [D23L] | 2.21
76 | STTEGIQLAKELGATYLELHSLFD [D23F] | 1.71
77 | STTEGIQLAKELGATYLELHSLCD [D23C] | 1.87
78 | STTEGIQLAKELGATYLELHSLDY [D24Y] | 2.7

Row | Variant | protein stability index
79 | STTEGIQLAKELGATYLELHSLDM [D24M] | 1.38
80 | STTEGIQLAKELGATYLELHSLDI [D24I] | 2.7
81 | STTEGIQLAKELGATYLELHSLDN [D24N] | 2.16
82 | STTEGIQLAKELGATYLELHSLDV [D24V] | 1.57
83 | STTEGIQLAKELGATYLELHSLDW [D24W] | 2.09
84 | STTEGIQLAKELGATYLELHSLDT [D24T] | 2.05
85 | STTEGIQLAKELGATYLELHSLDP [D24P] | 3.16
86 | STTEGIQLAKELGATYLELHSLDA [D24A] | 2.17
87 | STTEGIQLAKELGATYLELHSLDE [D24E] | 3.35
88 | STTEGIQLAKELGATYLELHSLDH [D24H] | 2.44
89 | STTEGIQLAKELGATYLELHSLDR [D24R] | 2.26
90 | STTEGIQLAKELGATYLELHSLDQ [D24Q] | 1.96
91 | STTEGIQLAKELGATYLELHSLDK [D24K] | 3.02
92 | STTEGIQLAKELGATYLELHSLDG [D24G] | 1.94
93 | STTEGIQLAKELGATYLELHSLDS [D24S] | 2.02
94 | STTEGIQLAKELGATYLELHSYDD [L22Y] | 4.41

From the supplement of paper PMC10567573
